T1: mCXCL5 displayed on the surface of yeast as N-terminal fusion of Aga2p (mouse)
T1 chain: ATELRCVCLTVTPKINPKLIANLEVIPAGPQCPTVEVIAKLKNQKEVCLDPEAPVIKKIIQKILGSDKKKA

T2: mCXCL3 displayed on the surface of yeast as N-terminal fusion of Aga2p (mouse, UniProt Q6W5C0 32-100)
T2 chain: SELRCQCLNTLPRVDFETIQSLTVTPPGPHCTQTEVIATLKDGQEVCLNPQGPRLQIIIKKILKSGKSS

B1: mCXCL1 displayed on the surface of yeast as N-terminal fusion of Aga2p (ligand)
chain: APIANELRCQCLQTMAGIHLKNIQSLKVLPSGPHCTQTEVIATLKNGREACLDPEAPLVQKIVQKMLKGVPK
B2: mCXCL2 displayed on the surface of yeast as N-terminal fusion of Aga2p (ligand)
chain: AVVASELRCQCLKTLPRVDFKNIQSLSVTPPGPHCAQTEVIATLKGGQKVCLDPEAPLVQKIIQKILNKGKAN

Experiments:
Experiment in all cases: FACS
[1] = molecular target: SA157*, separate mouse serum albumin fusions of the VL and VH domains of CK157 mixed in equimolar amounts
[2] = molecular target: T1, mCXCL5 displayed on the surface of …
[3] = molecular target: T2, mCXCL3 displayed on the surface of …
[4] = molecular target: B2
[5] = molecular target: B1
[6] = molecular target: hCXCL8
[7] = molecular target: hCXCL5
[8] = molecular target: hCXCL3
[9] = molecular target: hCXCL6
[10] = molecular target: hCXCL2
[11] = molecular target: wild-type hCXCL1 displayed on the surface of yeast as N-terminal fusion of Aga2p (human, UniProt P09341 35-107)
Sequence of wild-type hCXCL1 displayed on the surface of yeast as N-terminal fusion of Aga2p (P09341 35-107): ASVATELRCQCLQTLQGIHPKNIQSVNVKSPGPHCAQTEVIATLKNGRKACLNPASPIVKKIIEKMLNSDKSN

| Kd [1] [nM] | Kd [5] [nM] | Kd [8] [nM] | Kd [10] [nM] | Binder | also measured |
| --- | --- | --- | --- | --- | --- |
| 666 | – | – | – | B1 | – |
| – | 29.4 | 836 | 1590 | SA138, mouse serum albumin fused to the CK138 single-chain variable antibody fragment (scFv, V domains shown) VH: EVQLVESDGGLVQPGGSLRLSCAASGFNLSYYGMHWVRQAPGKGLEWVAYIASYPGYTSYADSVKGRFTISADTSKNTAYLQMNSLRAEDTAVYYCARSGYSYSPYYSWFSAGMNYWGQGALVTVSS VL: AIQMTRSPSSLSASVGDRVTITCRASQYHDGSAAWYQQKPGKAPKLLIYGASYLYSGVPSRFSGSRSGTDFTLTISSLQPEDFATYYCQQSSYSLITFGQGTKVEIK | Kd [2]: 357 nM; Kd [3]: 31.1 nM; Kd [4]: 16.7 nM; Kd [6]: 14.7 nM; Kd [7]: 33.7 nM; Kd [9]: 5000 nM |
| – | 2.9 | 9.2 | 43.6 | SA129, mouse serum albumin fused to the CK129 single-chain variable antibody fragment (scFv, V domains shown) VH: EVQLVESGGGLVQPGGSLRLSCAASGFNISSYGSMHWVRQAPGKGLEWVASIYPYSSSTYYADSVKGRFTISADTSKNTAYLQMNSLRAEDTAVYYCARGYGPWYAYSYFALDYWGQGTLVTVSS VL: DIQMTQSPSPLSASVGDRVTITCRASQYGGYVAWYQQKPGKAPKLLIYGASLLYSGVPSRFSGGRSGTDFTLTISSLQPEDFATYYCQRGHALITFGQGTKVEIE | Kd [11]: 2.7 nM |
| 591 | – | – | – | B2 | – |
